Numbering of substitutions follows the chain as printed.
Legend:
Assay in all cases: cleavage_in_vitro
[1] = system: T1, SbfI (Streptomyces species Bf-61); details: NEB4, 37 C, Mg2+; FI NEB1-3: 32, 8, 8
T1 sequence: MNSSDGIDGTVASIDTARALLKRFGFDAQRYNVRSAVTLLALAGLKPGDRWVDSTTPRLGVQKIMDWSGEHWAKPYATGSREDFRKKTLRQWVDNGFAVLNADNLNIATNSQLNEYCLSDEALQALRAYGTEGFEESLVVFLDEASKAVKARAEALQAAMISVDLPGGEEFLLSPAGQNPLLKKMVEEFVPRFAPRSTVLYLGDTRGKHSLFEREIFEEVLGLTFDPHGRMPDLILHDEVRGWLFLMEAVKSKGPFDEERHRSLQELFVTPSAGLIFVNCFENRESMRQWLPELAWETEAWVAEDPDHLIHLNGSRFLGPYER

[2] = system: T2, NcoI-HF A2T/R31A (Nocardia corallina); details: NEB4, 37 C, Mg2+; Table 3 prints >=64000; FI NEB1-3: >=4000, >=4000, >=1000
T2 sequence: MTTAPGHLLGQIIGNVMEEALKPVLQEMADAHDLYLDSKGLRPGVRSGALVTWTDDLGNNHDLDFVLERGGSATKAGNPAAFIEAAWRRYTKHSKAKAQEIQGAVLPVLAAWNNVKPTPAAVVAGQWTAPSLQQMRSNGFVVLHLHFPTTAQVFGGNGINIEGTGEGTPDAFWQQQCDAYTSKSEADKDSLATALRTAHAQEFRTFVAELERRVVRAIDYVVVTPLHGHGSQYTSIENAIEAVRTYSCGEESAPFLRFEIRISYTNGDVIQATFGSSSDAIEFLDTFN

[3] = target: T3, HindIII (Haemophilus influenzae Rd) (UniProt P43870); details: NEB4, 37 C, Mg2+; FI NEB1-3: 32, 250, 4000
T3 sequence: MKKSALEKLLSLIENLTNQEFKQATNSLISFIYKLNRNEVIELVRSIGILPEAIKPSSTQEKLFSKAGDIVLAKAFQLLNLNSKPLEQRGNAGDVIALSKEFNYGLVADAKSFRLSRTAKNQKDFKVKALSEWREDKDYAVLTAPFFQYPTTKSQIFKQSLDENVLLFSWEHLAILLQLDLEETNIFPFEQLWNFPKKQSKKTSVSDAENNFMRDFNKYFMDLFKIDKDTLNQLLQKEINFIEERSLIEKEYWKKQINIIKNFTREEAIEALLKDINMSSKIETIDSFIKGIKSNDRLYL

[4] = system: T4, BsmBI (Bacillus stearothermophilus); details: NEB4, 55 C, Mg2+; FI NEB1-3: 1, 8, 120
T4 sequence: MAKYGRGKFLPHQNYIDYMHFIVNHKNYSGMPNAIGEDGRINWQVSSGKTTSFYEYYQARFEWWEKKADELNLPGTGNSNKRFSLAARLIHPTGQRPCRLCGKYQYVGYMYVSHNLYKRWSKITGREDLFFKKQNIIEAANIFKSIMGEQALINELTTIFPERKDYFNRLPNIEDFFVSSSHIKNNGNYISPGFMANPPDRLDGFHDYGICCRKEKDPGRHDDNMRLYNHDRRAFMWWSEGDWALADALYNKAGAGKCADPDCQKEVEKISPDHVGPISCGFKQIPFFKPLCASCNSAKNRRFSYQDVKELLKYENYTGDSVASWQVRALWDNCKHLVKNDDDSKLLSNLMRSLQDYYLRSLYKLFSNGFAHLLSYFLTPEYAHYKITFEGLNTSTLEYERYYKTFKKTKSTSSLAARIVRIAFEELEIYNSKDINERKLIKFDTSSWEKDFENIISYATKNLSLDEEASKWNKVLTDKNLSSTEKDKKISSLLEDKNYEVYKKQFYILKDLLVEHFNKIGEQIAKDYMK

[5] = system: T5, NcoI (Nocardia corallina); details: NEB4, 37 C, Mg2+; FI NEB1-3: 120, 32, 120
T5 sequence: T2 sequence with T2A, A31R

## lambda phage DNA
[1]
  activity (fidelity index): 8
[2]
  activity (fidelity index): > 16000
[3]
  activity (fidelity index): 32
[4]
  activity (fidelity index): 4
[5]
  activity (fidelity index): 32

From patent US20130115678
